The values below come from patent US20120244144A1 (University of Texas, published 2012).

For one test, the target named is T1, PTx-S1-220 T159A (Bordetella pertussis strain Tohama I, UniProt P04977 36-255, T159A).
T1 sequence: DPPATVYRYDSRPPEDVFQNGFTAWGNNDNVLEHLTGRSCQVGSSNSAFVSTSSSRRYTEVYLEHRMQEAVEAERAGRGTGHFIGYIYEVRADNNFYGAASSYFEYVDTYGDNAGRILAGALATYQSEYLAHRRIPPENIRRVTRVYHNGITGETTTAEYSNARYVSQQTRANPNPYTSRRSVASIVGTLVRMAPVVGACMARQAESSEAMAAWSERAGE
Nature of the test: SPR, mAb 1B7 immobilised ~1000 RU. On the technique in general: SPR reads the build-up and loss of mass on a sensor chip optically.

The target of another test is T2, PTx-S1-220 Y8A (Bordetella pertussis strain Tohama I, UniProt P04977 36-255, Y8A).
T2 sequence: T1 sequence with Y7A, A158T
Nature of the test: Western blot (text: 1B7 was unable to bind Y8A). Background: Immunoblotting shows a protein as a band on a membrane.

In test [1] the target is pertussis toxin B-oligomer (Bordetella pertussis), P04978. Nature of the test: ELISA repeated with mAb 1B7. The following applies: remark: other sources report otherwise. Background: An ELISA detects its analyte on a solid surface through an enzyme-linked reagent.
In test [2] the target is T3, PTx-S1-220, truncated recombinant S1 subunit (residues 1-220) (Bordetella pertussis strain Tohama I), P04977. Nature of the test: SPR; value for truncated PTx-S1-220 differs from Table 1. The following applies: remark: other sources report otherwise.
Test [3] addresses pertussis toxin B-oligomer (Bordetella pertussis), P04978. Nature of the test: SPR BIAcore 3000, mAb 1B7 immobilised ~1000 RU. The following applies: remark: other sources report otherwise.
Test [4] concerns the target pertussis toxin holotoxin (Bordetella pertussis), P04977. Nature of the test: SPR BIAcore 3000, mAb 1B7 immobilised ~1000 RU. The following applies: remark: other sources report otherwise.
Test [5] concerns the target T3, PTx-S1-220, truncated recombinant S1 …. Nature of the test: SPR BIAcore 3000, mAb 1B7 immobilised ~1000 RU. The note with it: remark: other sources report otherwise.
Another test addresses T4, PTx-S1A (1-220) (Bordetella pertussis, UniProt P04977 36-255, M194I).
T4 sequence: T1 sequence with A158T, M193I
Nature of the test: SPR.

In a further test the target is T5, PTx-S1D (1-220) (Bordetella pertussis, UniProt P04977 35-254).
T5 chain: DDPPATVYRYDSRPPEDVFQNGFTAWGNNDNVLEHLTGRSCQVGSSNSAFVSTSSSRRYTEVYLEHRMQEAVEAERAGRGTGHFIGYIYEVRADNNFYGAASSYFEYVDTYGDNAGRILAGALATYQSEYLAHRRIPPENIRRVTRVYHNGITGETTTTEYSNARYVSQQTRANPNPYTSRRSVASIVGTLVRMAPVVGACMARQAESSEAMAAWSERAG
Nature of the test: SPR.

Where a chain is given by its changes, count along the chain named.

B1: monoclonal antibody 1B7 (antibody)
chain: DIQMTQSPALMSASPGEKVTMTCSASSSVSFMYWYQQKPRSSPKPWIYLTSNLPSGVPARFSGSGSGTSYSLTISSMEAEDAATYYCQQWSSHPPTFGSGTKLEIKRGGGGSGGGGSGGGGSGGGGSEVQLQQSGSELVRPGASVKLSCKASGYKFTSYWMHWVKQRPGQGLEWIGNIFPGSGSTNYDEKFNSKATLTVDTSSNTAYMQLSSLTSEDSAVYYCTRWLSGAYFDYWGQGTTLTVSSASGA
notes: also called mAb 1B7; 1B7 mAb
Regarding B1, the dissociation rate constant (koff) (as a rule, the first-order rate constant of dissociation) was 0.0014 s⁻¹ in the test with PTx-S1-220 T159A; 0.0014 s⁻¹ in test [2]; 0.0027 s⁻¹ in [3]; 0.0004 s⁻¹ in [4]; 0.0014 s⁻¹ in [5]. The binding result with PTx-S1-220 Y8A was “no binding”. Also, in test [1], the EC50-PTx (%) amounted to 30%. Further, the “fold decrease in off-rate versus WT PTx-S1-220” value with PTx-S1A (1-220) and with PTx-S1D (1-220) was approximately 2 fold each time.
